In publication PMC10504544, “1-deoxy-D-xylulose-5-phosphate synthase from Pseudomonas aeruginosa and Klebsiella pneumoniae reveals conformational changes upon cofactor binding” (The Journal of Biological Chemistry, 2023):

What was measured:
[1] = system: Cc1ncc(C[n+]2csc(CCO[P@](=O)(O)OP(=O)(O)O)c2C)c(N)n1; assay: steady-state kinetics (Km); type: biochemical, Klebsiella pneumoniae; conditions: Mg2+ active site; diphosphate in asparagine-rich region with H bond from Ser52; varied: cofactor
CC(=O)C(=O)O = assay: steady-state kinetics (Km), IspC-coupled assay; type: biochemical, Klebsiella pneumoniae; conditions: ThDP, Mg2+
O=CC(O)COP(=O)(O)O = assay: steady-state kinetics (Km), IspC-coupled assay; type: biochemical, Klebsiella pneumoniae; conditions: ThDP, Mg2+
[2] = system: Cc1ncc(C[n+]2csc(CCO[P@](=O)(O)OP(=O)(O)O)c2C)c(N)n1; assay: purified protein; type: biochemical, Pseudomonas aeruginosa; conditions: varied: cofactor

Substance	Km [1]	Km (CC(=O)C(=O)O)	Km (O=CC(O)COP(=O)(O)O)	Km [2]
1-deoxy-D-xylulose-5-phosphate synthase (kpDXPS) (Klebsiella pneumoniae subsp. pneumoniae MGH 78578; DEL197-240/INS196GGGGGG)	0.11 ± 0.017 µM	113 ± 34 µM	170 ± 43 µM	
1-deoxy-D-xylulose-5-phosphate synthase (paDXPS) (Pseudomonas aeruginosa LESB58; DEL206-245/INS205GGGGGG)				0.0965 ± 0.014 µM
